Data as given in the nanobody polyreactivity screen of Harvey et al. (2022).

Experiment: yeast display, Sf9 membrane polyspecificity reagent, FACS + sequencing; frameworks hold sequencing errors
Outline: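 Sorting gates, low and high (top ~1%), were placed on anti-HA fluorescence to track expression and on streptavidin fluorescence to track reagent binding. A clone's polyreactivity label is taken from the gate it came out of. The reagent was 10% biotinylated, detergent-solubilized Sf9 membrane, applied for 1 hour at 4 °C to galactose-induced yeast display cells.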

Sequence	polyreactivity (PSR sort gate)
QVQLVESGGGLVQAGGSLRLSSGAYGITFWTYAMGWYRQAHGKERELVAAISNGGSTSYADSVKGRFTISRDNAKNTVYLQINILKPEDTAVYYCASDWATHRPWYWCVYYWGQGTQVTVSS	low polyreactivity
QVQLVESGGGLVQAGGSLRLSSPASGRTIRSYAMGSYRQAPGKERELVAAINSSGGSTYYADSVKARFTISRDNAKNTVYLQMNSLKPEDTAVYYCNTDYSSTSPWRAANYWGQGTQVTVSS	high polyreactivity
QVQLVESGGGLVQAGGSLRLSSPASGSIYRKYGMGSYRQAPGKERELVATITSSGGSTYYADSVKGRFSISRDNAKKTVYLQMNSLKPEDTAVYYCAADYYYLPGSYQVRAMYYWGQGTQVTVSS	high polyreactivity
QVQLVESGGGLVQAGGSLRLSWAASGFIFGFYAMGWYRQAPGKERELVADITSSGGSTYYADSVKGRFTISRDNAKNTVYLQMNSLKQEDTAVYYCAADGWLHNFYPGTGLDYWGQGTQVTVSS	low polyreactivity
QVQLVESGGGLVQAGGSLRLSWAASGFTFTPYAMGWYRPAPGKEREFVAAISQRGTSTFYADSVKGRFTISRDNAKHTVYLQMNSLKPEDTAVYYCAKPYRQYTSAYYNTYNYWGQGTEVTVSS	high polyreactivity
QVQLVESGGGLVQAGGSLRLSWAASGLIFSSNAMGWYRQAPGKERDLVAAITRSGGSTYYADSVKGRFTISRDNAKNTVYLQMNSLKPEDTAVYYCAARYSQRGITFYYWGQGTQVTVSS	high polyreactivity
QVQLVESGGGLVQAGGSLRLSWAASGRIFVLNAMGSYRQAPGKERELVAAISTGASTNYADSVKGRFTISRDNAKNTVYLKMNSLTPEATAVYYCAAAPGSSGARTSYILAYDYWGLGTQVTVSS	low polyreactivity
QVQLVESGGGLVQAGGSLRLSWAASGSIFFYYTIGWYRQAPGKERELVAAISVGGSTYYADSVKGRFTISRDNAKNTVYLQMNSLKPEDTAVYYSNAVPAKGFVTVVRYYYWGQGTQVTVSS	low polyreactivity
QVQLVESGGGLVQAGGSLRLSWAASGSTFRLYAMGWYRQAPGKERELVAAITWSGGSTYYADSVKGRFTISRDNAKNTVYLQMNSLKPEDTAVYYCAAHRIGYYLRVSYRGKYDHWGQGTQVTVSS	low polyreactivity
QVQLVESGGGLVQAGGSLRLSWAASGSTLSLYAMGWYRQAPGKERELVAAITSSGGTYYADSVKGRFTISRDNAKNTVYLQMNSLKPEVTAVYYCNAYAKDARSYGYHRVNYWGQGTQVTVSS	high polyreactivity
QVQLVESGGGLVQAGGSLRLTCAACGRIFNKYAMVWYIQAPGKERELVAAINGGGSTNYADSVKGRFTISRDNAKNTDYLQMNSLKAEDTAVYYCSTTPDGEGGYWGQGTQVTVSS	low polyreactivity
QVQLVESGGGLVQAGGSLRLTCAACGRTFYWYSMGWYRKAPGKERELVATITRTGTRTYYADSVKGRFTISRDNAKNTVYLQMNSLKPEDTAVYYCAAGVIRYGGKEEYYYWGLGTQVTVSS	high polyreactivity
QVQLVESGGGLVQAGGSLRLTCAASARIFGYYVMGWSRQAPGKETELVAAIRSSADSTYYADSVKGRFTISRDNAKNTVYLQMNSLKPEDTAVYYCAAQSPAYYTKSYWGQGTQVTVSS	low polyreactivity
QVQLVESGGGLVQAGGSLRLTCAASGFIFEHYAMGWYRQAPGKERELVARISWRGGSTYYADSVKGRFTISRDNAKNTVYFQMNSLKPEDTAVYYCNAQEVVYFGYYPSDYWGQGTQVTVSS	low polyreactivity
QVQLVESGGGLVQAGGSLRLTCAASGFIFQIYAMGWYRQAPGKERELVAAISSGGSTNYADSVKGRFTISRDNAKNTVYLQMNSLKPEDTAVYYCAAATQYWYFYSFKDKSGFRGYYWGQGTQVTVSS	high polyreactivity
QVQLVESGGGLVQAGGSLRLTCAASGFIFRAYAKGWYRQEPGKERELVAAISRSVSRTYYADSVKGRFTISRDNAKNTVYLQMNSLKPEDTAVYYCAADGQLHMDYWGQGTQVTVSS	high polyreactivity
QVQLVESGGGLVQAGGSLRLTCAASGFIFYAYTMRCYRQAPGKERELVAAISRSGGRTYYADSVKGRFTISRDNAKNTVYLQMNRLKPEDTAVYYCAAEYRGVPRVVVDYDYWGQGTQVTVSS	high polyreactivity
QVQLVESGGGLVQAGGSLRLTCAASGFIVKYNAMGWYRQAPGKERELVAAITSTGSTNYADSVKGRFTISRDNAKNTVYFQMISLKPEDNAVYYCAAYWRSRNRFNWGQGTQVTVTS	high polyreactivity
QVQLVESGGGLVQAGGSLRLTCAASGFIYYYNAMGWYRQAPGKERQLVAAISASGDRTYYADSVKGRFTISRDNAKNTVYLQMNSLKPEDTAVYYCAARSQGARYSSRRRFGDYWGQGTQVTVSS	high polyreactivity
QVQLVESGGGLVQAGGSLRLTCAASGFTFARNTMGWYRQAPGKERELVAAISKNGGSTYYADSVKGRFTISRDNAKNTVYLQMNSLTPEDTAVYYCNTYPSKVGRYSVKDYEYGYWGQGTQVTVSS	high polyreactivity
QVQLVESGGGLVQAGGSLRLTCAASGFTFDQYAMGWYRQEPGKERELVAAISFDGSSTYYADSVKGRFTISRDNAKNTVYLQMNSLKPEDTAVYYCNAAVRGYSSLYRYGYWGQGTQVTVSS	high polyreactivity

Sequence	polyreactivity (PSR sort gate)
QVQLVESGGGLVQAGGSLRLTCAASGFTFFYNAMGWYRQAPGKERELVAAISRGGGRTYYADSVKGRFTISRDNAKNTVYLQMNSLKPEDTAVYYCAKEYGGTRGRKLDYWGQGTQVTVSS	high polyreactivity
QVQLVESGGGLVQAGGSLRLTCAASGFTFGEYAMGWYRQAPGKERELVAVITSGGGRTYYADSVKGRFTISRDNAKNNVYLEMNSLNPEDTAAYYCAAQPKPQLERKDDYWGQGTQVTVSS	high polyreactivity
QVQLVESGGGLVQAGGSLRLTCAASGFTFRSYAMGWYRQAPGKERELVADISIRGGGTYYADSVKGRFTISRDNAKNTVYLQRNSLKPEDTAVYYCAAERYKPFLWPRYDYWGQGTQVTVSS	low polyreactivity
QVQLVESGGGLVQAGGSLRLTCAASGFTFYRNTMGWYRQAPGKERELVAAITQRGGSTYYADSVKGRFTISRDNAKNTVYLQMNSLKPEDTAVYYCNRDVKVLYASSHSPYGYDHWGQGTQVTVSS	low polyreactivity
QVQLVESGGGLVQAGGSLRLTCAASGGIFQFYDMGWYRQAPGKERELVAAITSSGGSTYADSVKGRFTISRDNAKYTVYLQMNSLKPEVTAVYYCAASLVWEYAPGWRFKYGYWGQGTQVTVSS	high polyreactivity
QVQLVESGGGLVQAGGSLRLTCAASGGTISVYDMGWYRQAHGNERELVAAIRDRGVSTYYADSVKGRFTISRDTAKNTVYLQMNSLKPEDTAVYYCAAEYFDGSTYSYYYWGQGTQVTVSS	high polyreactivity
QVQLVESGGGLVQAGGSLRLTCAASGIIFKQNVKGWYRKAPGKESELVAAITSRDGTTYYADSVKGRFTISRDNAKNTVYLQMNSLKPEDTAVYYCATLFKSGSYKYGYWGQGTQVTVSS	high polyreactivity
QVQLVESGGGLVQAGGSLRLTCAASGIIFRGYVMAWYRQAPGKERELVAAISTSGGRTSYADSVKGRFTISRDNAKNTVYLQMNSLKPEDTAVYYCKTRVTGNRLGYYYWGQGTQVTVSS	high polyreactivity
QVQLVESGGGLVQAGGSLRLTCAASGITFGRNVMGWYRQAPGKEMELVATISGSAGYTYYADSVKGRFTISRDYAKNTVYFQMNSLKPEDTSVYYCAARQRKARQIVLLDYWGQGTKVTVSS	high polyreactivity
QVQLVESGGGLVQAGGSLRLTCAASGITFGSYAMGWYRQAPGKERELVAAITWRDGSTYYADSVKGRFTISRDNAKNTVYLQMYSLKPEDTAVYYCAAYLGLRYVGDVSDTWRYDYWGQGTQVTVSS	low polyreactivity
QVQLVESGGGLVQAGGSLRLTCAASGITFLHYAMGWYRQAPGKERELVATISRRGGSTYYADSVKGRFTNSRDNAKYTVYLQLNSLKPEDTAVYYCAADSYYLRHYSAGYYFKRYYWGQGTQVTVSS	high polyreactivity
QVQLVESGGGLVQAGGSLRLTCAASGITFTQNAMGWYRQAPGKERELVAAISRSGTITYYADSVKGRFTISRDHAKNTVYLQMNSLKPEDTAVYYCNKLRPQRSWEYDYWGQGTQVTVSS	high polyreactivity
QVQLVESGGGLVQAGGSLRLTCAASGITFYDNAMGWYRQAPGKERELVAGISYDGDSTYADSVKGRFTNSRDNAKNTVYLQMNSLKPEDTAVYYCAADSSGEYPGGYWGQGTQVTVSS	low polyreactivity
QVQLVESGGGLVQAGGSLRLTCAASGITLGFYAMGWYRQAPGKERELVAAISGRGGSTYYADSVKGRFTISRDNAKNTVYLKMNSLKPEDTPVYYCNALGYYQLVTPFYYWGQGTQVTVSS	high polyreactivity
QVQLVESGGGLVQAGGSLRLTCAASGLTFDSNVMGWYREAPGKERELVAANTYSGRTYYADSEKGRFTISRDNAKNTVYLQMNSLKPEDTAVYYCAARNLAYTRKGYYYWGQGTQVTVSS	high polyreactivity
QVQLVESGGGLVQAGGSLRLTCAASGLTFWWYAMGWYRQAPGKERELVAGITGGGSTSYADSVKGRFTISRDNAKNTVYLQMNSLIQEDTAVYYCAASPYNGQRTWYKYFFLGDYWGQGTQVTVSS	high polyreactivity
QVQLVESGGGLVQAGGSLRLTCAASGNIFVGNDMGWYRQAPGKERELVAAISSGDTTSYADSVKGRFTISRDNAKNTVYLKMNSLKPEETAVYYCAVDRSLSPFAYDYWGQGTQVTVSS	low polyreactivity
QVQLVESGGGLVQAGGSLRLTCAASGNIFYINAMGSYRQAPGKDRELVAAIRGGGSTYYADSVKGRFTISRDNAKKTVYLQMTSLKAEDTAVYYCAARGRRLNPQYRAFGMDYWGQGTQVTVSS	high polyreactivity
QVQLVESGGGLVQAGGSLRLTCAASGRIFDRYVMGWYRQAPGKERELVAAITFSGGRTYYADSVKGRFTISRDNAKNTVYLQMNSLKPEDTAVYYCNRVYYQKIYDYWGQGTQVTVSS	high polyreactivity
QVQLVESGGGLVQAGGSLRLTCAASGRIFDYNDMGWYRQAPGKERELVAAITSDGSTNYADSVKGRFTISRDNAKNTVFLQMNSLKPEDPAVYYCAADTGETFDSIYDYWGQGTQVTVSS	low polyreactivity
QVQLVESGGGLVQAGGSLRLTCAASGRIFGYYVMGWYRQAPGKERELVAAIRSSADSTYYADSVKGRFTISRDNAKNTVYLQMNSLKPEDTAVYYCNADTTGYWSYGFQYYGEDYWGQGTQVTVSS	low polyreactivity
